B1: HDV Ribozyme (parent)
chain: GGCCGGCAUGGUCCCAGCCUCCUCGCUGGCGCCGGCUGGGCAACAUUCCGAGGGGACCGUCCCCUCGGUAAUGGCGAAUGGGACCCA

Variants of: B1
Experiment: self-cleavage, relative activity (ratio to wild type); higher = more cleavage; co-transcriptional

First: GGCCGGCAUGGUCCCAGCCUCCUCGCUGGCGCCGGAUGGGCAACAUUCCGAGGGGACCGUCCCCUCGGUAAUGGGGAAUGGGACCCA
Second: GGCCGGCAUGGUCCCAGCCUCCUCGCUGGCGCCGGAUGGACAACAUUCCGAGGGGACCGUCCCCUCGGUAAUGGCGAAUGGGACCCA
The self-cleavage of the first is lower: 0.154 for the first, 0.234 for the second.

First: GGCCGGCAUGGUCCCAGCCUCCUCGCUGGCGCCGGAUGGGCAACGUUCCGAGGGGACCGUCCCCUCGGUAAUGGCGAAUGGGACCCA
Second: GGCCGGCAUGGUCCCAGCCUCCUCGCUGGCGCCGGAUGGGCAACCUUCCGAGGGGACCGUCCCCUCGGUAAUGGCGAAUGGGACCCA
The self-cleavage of the first is higher: 0.256 for the first, 0 for the second.

First: GGCCGGCAUGGUCCCAGCCUCCUCGCUGGCGCCGUCGGGGCAACAUUCCGAGGGGACCGUCCCCUCGGUAAUGGCGAAUGGGACCCA
Second: GGCCGGCAUGGUCCCAGCCUCCUCGCUGGCGCCGUCCGGGCAACAUUCCGAGGGGACCGUCCCCUCGGUAAUGGCGAAUGGGACCCA
The self-cleavage of the first is lower: 0.095 for the first, 0.428 for the second.

First: GGCCGGCAUGGUCCCAGCCUCCUCGCUGGCGCCGUCAGGGCAACAUUCCGAGGGGACCGUCCCCUCGGUAAUGGCGAAUGGGACCCA
Second: GGCCGGCAUGGUCCCAGCCUCCUCGCUGGCGCCGUCUGGGCAACAUUCCGAGGGGACCGCCCCCUCGGUAAUGGCGAAUGGGACCCA
The self-cleavage of the first is lower: 0.155 for the first, 0.317 for the second.

Compared with GGCCGGCAUGGUCCCAGCCUCCUCGCUGGCGCCGUCUGGGCAACAUUCCGAGGGGACCGACCCCUCGGUAAUGGCGAAUGGGACCCA, GGCCGGCAUGGUCCCAGCCUCCUCGCUGGCGCCGGAUGGGCAACAUUCCGAGGGGACCGUCCCCUCGGUAAUGGCGUAUGGGACCCA is lower in self-cleavage: 0.415 for the first, 0.217 for the second.

First: GGCCGGCAUGGUCCCAGCCUCCUCGCUGGCGCCGGAUGGGCAACAUUCCGAGGGGACCGUCCCCUCGGUAAUGGCGCAUGGGACCCA
Second: GGCCGGCAUGGUCCCAGCCUCCUCGCUGGCGCCGGAUGGGCAACAUUCCGAGGGGACCGUCCCCUCGGUAAUGGCGAAUGGGAACCA
The self-cleavage of the first is higher: 0.259 for the first, 0.192 for the second.

First: GGCCGGCAUGGUCCCAGCCUCCUCGCUGGCGCCGGAUGUGCAACAUUCCGAGGGGACCGUCCCCUCGGUAAUGGCGAAUGGGACCCA
Second: GGCCGGCAUGGUCCCAGCCUCCUCGCUGGCGCCGUCUGGGCAACAUUCCGAGGGGACCGUCCCCUCGGCAAUGGCGAAUGGGACCCA
The self-cleavage of the first is lower: 0.0906 for the first, 0.253 for the second.

First: GGCCGGCAUGGUCCCAGCCUCCUCGCUGGCGCCGUCUGGGCAACAUUCCGAGGGGACCGUCCCCUCGGGAAUGGCGAAUGGGACCCA
Second: GGCCGGCAUGGUCCCAGCCUCCUCGCUGGCGCCGGAUGGGCAACAUUCCGAGGGGACCGUCCCCUCGGUAAUGGCGAAUGGGACCUA
The self-cleavage of the first is higher: 0.302 for the first, 0.17 for the second.

Going from GGCCGGCAUGGUCCCAGCCUCCUCGCUGGCGCCGGAUGGGCAACAUUCCGAGGGGACCGUCCCCUCGGUAAUGGCGAAUGGGACCGA to GGCCGGCAUGGUCCCAGCCUCCUCGCUGGCGCCGGAUGGGCAACAUUCCGAGGGGACCGUCCCCUCGGUAGUGGCGAAUGGGACCCA, the self-cleavage falls from 0.325 to 0.0405.

Compared with GGCCGGCAUGGUCCCAGCCUCCUCGCUGGCGCCGGAUGGGCAACAUUCCGAGGGGACCGUCCCCUCGGUACUGGCGAAUGGGACCCA, GGCCGGCAUGGUCCCAGCCUCCUCGCUGGCGCCGGAUGGGCAACAUUCCGAGGGGACCGUCCCCUCGGUAUUGGCGAAUGGGACCCA is higher in self-cleavage: 0.0573 for the first, 0.309 for the second.

Going from GGCCGGCAUGGUCCCAGCCUCCUCGCUGGCGCCGGAUGGGCAACAUUCCGAGGGGACCGUCCCCUGGGUAAUGGCGAAUGGGACCCA to GGCCGGCAUGGUCCCAGCCUCCUCGCUGGCGCCGGAUGGGCAACAUUCCGAGGGGACCGUCCCCUUGGUAAUGGCGAAUGGGACCCA, the self-cleavage falls from 0.177 to 0.134.

First: GGCCGGCAUGGUCCCAGCCUCCUCGCUGGCGCCGGAUGGGCAACAUUCCGAGGGGAGCGUCCCCUCGGUAAUGGCGAAUGGGACCCA
Second: GGCCGGCAUGGUCCCAGCCUCCUCGCUGGCGCCGGAUGGGCAACAUUCCGAGGGGAACGUCCCCUCGGUAAUGGCGAAUGGGACCCA
The self-cleavage of the first is lower: 0.0898 for the first, 0.297 for the second.

First: GGCCGGCAUGGUCCCAGCCUCCUCGCUGGCGCCGGAUGGGCAACAUUUCGAGGGGACCGUCCCCUCGGUAAUGGCGAAUGGGACCCA
Second: GGCCGGCAUGGUCCCAGCCUCCUCGCUGGCGCCGGAUGGGGAACAUUCCGAGGGGACCGUCCCCUCGGUAAUGGCGAAUGGGACCCA
The self-cleavage of the first is lower: 0.116 for the first, 0.18 for the second.

Going from GGCCGGCAUGGUCCCAGCCUCCUCGCUGGCGCCGGAUGGGUAACAUUCCGAGGGGACCGUCCCCUCGGUAAUGGCGAAUGGGACCCA to GGCCGGCAUGGUCCCAGCCUCCUCGCUGGCGCCGGAUGGGAAACAUUCCGAGGGGACCGUCCCCUCGGUAAUGGCGAAUGGGACCCA, the self-cleavage falls from 0.171 to 0.102.

Compared with GGCCGGCAUGGUCCCAGCCUCCUCGCUGGCGCCGGAUGGGCAACAUUCCGAGGGGACCGUCUCCUCGGUAAUGGCGAAUGGGACCCA, GGCCGGCAUGGUCCCAGCCUCCUCGCUGGCGCCGGAUGGGCAACAUUCCGAGGGGACCGUCACCUCGGUAAUGGCGAAUGGGACCCA is higher in self-cleavage: 0.175 for the first, 0.261 for the second.

Compared with GGCCGGCAUGGUCCCAGCCUCCUCGCUGGCGCCGGAUGGGCAUCAUUCCGAGGGGACCGUCCCCUCGGUAAUGGCGAAUGGGACCCA, GGCCGGCAUGGUCCCAGCCUCCUCGCUGGCGCCGGAUGGGCACCAUUCCGAGGGGACCGUCCCCUCGGUAAUGGCGAAUGGGACCCA is lower in self-cleavage: 0.198 for the first, 0.095 for the second.

Source: the RNAGym collection of RNA variant scans (doi:10.7554/elife.80360)
